# Measured values as given in publication doi:10.1101/2022.11.07.515236 (bioRxiv, 2022).
# B1: recombinant human GDF3 (ligand)
# chain: AAIPVPKLSCKNLCHRHQLFINFRDLGWHKWIIAPKGFMANYCHGECPFSLTISLNSSNYAFMQALMHAVDPEIPQAVCIPTKLSPISMLYQDNNDNVILRHYEDMVVDECGCG
# B2: recombinant mouse GDF3 (ligand)
# chain: AAISVPKGFCRNFCHRHQLFINFQDLGWHKWVIAPKGFMANYCHGECPFSMTTYLNSSNYAFMQALMHMADPKVPKAVCVPTKLSPISMLYQDSDKNVILRHYEDMVVDECGCG
# Assays:
# [1] = molecular target: T1, recombinant human ACTRIIA-Fc (human, UniProt P27037); assay: SPR
# [2] = molecular target: T2, Fc chimera of recombinant human type II BMP receptor BMPRII (human, UniProt Q13873); assay: SPR
# T2 sequence: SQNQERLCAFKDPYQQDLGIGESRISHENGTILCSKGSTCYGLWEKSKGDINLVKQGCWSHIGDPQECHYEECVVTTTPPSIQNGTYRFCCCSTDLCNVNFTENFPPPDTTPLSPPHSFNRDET
# [3] = molecular target: T1, recombinant human ACTRIIA-Fc; assay: BLI
# [4] = molecular target: T2, Fc chimera of recombinant human type II …; assay: BLI
# T1 sequence (P27037 20-135): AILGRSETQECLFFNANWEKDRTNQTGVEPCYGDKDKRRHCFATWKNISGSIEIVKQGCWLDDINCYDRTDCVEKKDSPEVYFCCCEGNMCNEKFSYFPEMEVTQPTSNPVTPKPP
Binder,binding result [1],binding result [2],binding result [3],binding result [4]
B1,binds,binds,,
B2,,,binds,binds
